Experimental data published in patent US20250197505A1.

Legend:
[1] = biological target: human CD94 expressed on cells (human primary NK cells in PBMCs; HEK cells expressing human CD94) (human) (UniProt Q13241); test: HLA-E tetramer blocking assay, flow cytometry on CD3-CD56+ NK cells in healthy donor PBMCs; antibody at one saturating concentration, blocked ligand PE-labelled HLA-E tetramer; percent blocking = 100-((percent HLA-E positive with antibody)/(percent HLA-E positive with isotype)*100)
[2] = biological target: human CD94 expressed on cells (human primary NK cells in PBMCs; HEK cells expressing human CD94) (human) (UniProt Q13241); test: flow cytometry titration on CD3-CD56+ NK cells in healthy donor PBMCs; 'Affinity on Human NK Cells'; the filing derives these affinities as EC50 of titration curves (the 2.6nM of 18H3 is labelled EC50 in FIG. 1)
[3] = biological target: human CD94 expressed on cells (human primary NK cells in PBMCs; HEK cells expressing human CD94) (human) (UniProt Q13241); test: flow cytometry, PE HLA-E tetramer on NK cells of PBMCs pre-incubated with antibody; competitor HLA-E tetramer
[4] = biological target: human CD94 expressed on cells (human primary NK cells in PBMCs; HEK cells expressing human CD94) (human) (UniProt Q13241); test: cell-based or functional assay
[5] = biological target: human CD94 expressed on cells (human primary NK cells in PBMCs; HEK cells expressing human CD94) (human) (UniProt Q13241); test: competition assay, flow cytometry on CD3-CD56+ NK cells in healthy donor PBMCs; HP-3B1 titrated in the presence of Mouse IgG1 control (no competitor)
[6] = biological target: human CD94 expressed on cells (human primary NK cells in PBMCs; HEK cells expressing human CD94) (human) (UniProt Q13241); test: competition assay, flow cytometry on CD3-CD56+ NK cells in healthy donor PBMCs; HP-3B1 titrated in the presence of Human IgG1 control (no competitor)
[7] = biological target: human CD94 expressed on cells (human primary NK cells in PBMCs; HEK cells expressing human CD94) (human) (UniProt Q13241); test: as above; remark: listed apart in the source

Sequence of human CD94 expressed on cells (human primary NK cells in PBMCs; HEK cells expressing human CD94) (human) (Q13241 whole entry): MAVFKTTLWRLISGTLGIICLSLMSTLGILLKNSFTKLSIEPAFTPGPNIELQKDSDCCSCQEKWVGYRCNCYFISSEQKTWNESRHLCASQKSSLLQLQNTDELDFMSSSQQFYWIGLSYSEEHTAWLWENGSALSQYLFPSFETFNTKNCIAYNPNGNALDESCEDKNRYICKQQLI

Row | Substance | HLA-E Blocking [1] | EC50 [2] | percent HLA-E blocking [3] | percent decrease in MFI (antibody internalization assay), comparing 0.5 hours to 24 hours at 37° C. [4] | EC50 (read off the curve) [5] | EC50 (read off the curve) [6] | EC50 (read off the curve) [7]
1 | commercial anti-CD94 antibody clone 131412 | 40% | 11 nM | > 40% |  |  |  | 
2 | commercial anti-CD94 antibody clone HP-3B1 | 99.8% | 3 nM | > 40% |  | 2 nM | 2 nM | 3 nM
3 | commercial anti-CD94 antibody clone HP-3D9 | 99% | 0.07 nM | > 40% | 54% |  |  | 

Further substances by falling EC50 [2], results first:

Row | HLA-E Blocking [1] | EC50 [2] | percent HLA-E blocking [3] | percent decrease in MFI (antibody internalization assay), comparing 0.5 hours to 24 hours at 37° C. [4] | EC50 (read off the curve) [5] | EC50 (read off the curve) [6] | EC50 (read off the curve) [7] | Substance
4 | 47% | 7 nM | > 40% |  |  |  |  | commercial anti-CD94 antibody clone 12K45
5 | 99% | 0.15 nM | > 40% | 56% |  |  |  | commercial anti-CD94 antibody clone DX22
